Experimental data reported in publication PMC3945637 (Frontiers in Pharmacology, 2014).
Each block holds one molecule with its values, some of them ahead of it. Peptide text beside a SMILES is read from it.

Columns and labels:
[1] = biological target: T1, rabbit B2R-green fluorescent protein (B2R-GFP) (Oryctolagus cuniculus, UniProt Q28642); test: [3H]BK binding competition to B2R-GFP stably expressed in intact HEK 293 cells
T1 construct: expressed in transfected cells
T1 sequence (Q28642 1-367): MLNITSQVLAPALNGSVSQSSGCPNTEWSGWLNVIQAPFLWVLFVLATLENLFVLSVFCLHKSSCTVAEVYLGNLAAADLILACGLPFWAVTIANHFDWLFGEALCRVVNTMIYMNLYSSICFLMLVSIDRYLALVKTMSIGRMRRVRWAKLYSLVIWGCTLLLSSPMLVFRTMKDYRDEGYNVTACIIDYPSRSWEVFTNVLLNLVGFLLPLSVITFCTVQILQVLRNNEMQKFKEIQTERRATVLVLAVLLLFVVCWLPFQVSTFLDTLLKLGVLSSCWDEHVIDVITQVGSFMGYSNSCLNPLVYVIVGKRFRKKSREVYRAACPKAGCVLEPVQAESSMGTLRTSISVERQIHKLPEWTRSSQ
Protocol: (§1) Affinity for the B2R was evaluated using a radioligand binding competition assay performed at 0 °C in the presence of peptidase inhibitors that included captopril ([Houle et al., 2000]). […] Other HEK 293a cells that transiently expressed human recombinant ACE were used to perform a [^3H]enalaprilat binding assay as described ([Koumbadinga et al., 2010]; the peACE vector was a gift from Prof. P. Corvol, Paris, France).
(§2) Results are presented as mean ± SEM. Radioligand binding data were fitted by non-linear regression to a one-site competition equation using a least-square method (Prism 4.0, GraphPad Software Inc., San Diego, CA, USA) and IC50 values calculated from this procedure. The same computer program was used to draw concentration-effect curves (least square fitting of sigmoidal dose-response equation with variable slope) and to derive contractile EC50 values. The qualitative effect of treatments on the distribution of the B2R-GFP fluorescent protein (either located at the plasma membrane or submitted to internalization) was evaluated for each HEK 293 cell in large microphotographic records and proportion of affected cells were compared using the χ^2 statistics to determine drug effect on the subcellular receptor distribution.

human recombinant ACE [2] = biological target: T2, human recombinant ACE (Homo sapiens, UniProt P12821); test: [3H]enalaprilat binding competition to recombinant ACE transiently expressed in HEK 293a cells; parameters: expressed in transfected cells; host or cells: HEK 293a cells, transient expression (peACE vector, gift from Prof. P. Corvol)
T2 sequence (P12821 30-1306): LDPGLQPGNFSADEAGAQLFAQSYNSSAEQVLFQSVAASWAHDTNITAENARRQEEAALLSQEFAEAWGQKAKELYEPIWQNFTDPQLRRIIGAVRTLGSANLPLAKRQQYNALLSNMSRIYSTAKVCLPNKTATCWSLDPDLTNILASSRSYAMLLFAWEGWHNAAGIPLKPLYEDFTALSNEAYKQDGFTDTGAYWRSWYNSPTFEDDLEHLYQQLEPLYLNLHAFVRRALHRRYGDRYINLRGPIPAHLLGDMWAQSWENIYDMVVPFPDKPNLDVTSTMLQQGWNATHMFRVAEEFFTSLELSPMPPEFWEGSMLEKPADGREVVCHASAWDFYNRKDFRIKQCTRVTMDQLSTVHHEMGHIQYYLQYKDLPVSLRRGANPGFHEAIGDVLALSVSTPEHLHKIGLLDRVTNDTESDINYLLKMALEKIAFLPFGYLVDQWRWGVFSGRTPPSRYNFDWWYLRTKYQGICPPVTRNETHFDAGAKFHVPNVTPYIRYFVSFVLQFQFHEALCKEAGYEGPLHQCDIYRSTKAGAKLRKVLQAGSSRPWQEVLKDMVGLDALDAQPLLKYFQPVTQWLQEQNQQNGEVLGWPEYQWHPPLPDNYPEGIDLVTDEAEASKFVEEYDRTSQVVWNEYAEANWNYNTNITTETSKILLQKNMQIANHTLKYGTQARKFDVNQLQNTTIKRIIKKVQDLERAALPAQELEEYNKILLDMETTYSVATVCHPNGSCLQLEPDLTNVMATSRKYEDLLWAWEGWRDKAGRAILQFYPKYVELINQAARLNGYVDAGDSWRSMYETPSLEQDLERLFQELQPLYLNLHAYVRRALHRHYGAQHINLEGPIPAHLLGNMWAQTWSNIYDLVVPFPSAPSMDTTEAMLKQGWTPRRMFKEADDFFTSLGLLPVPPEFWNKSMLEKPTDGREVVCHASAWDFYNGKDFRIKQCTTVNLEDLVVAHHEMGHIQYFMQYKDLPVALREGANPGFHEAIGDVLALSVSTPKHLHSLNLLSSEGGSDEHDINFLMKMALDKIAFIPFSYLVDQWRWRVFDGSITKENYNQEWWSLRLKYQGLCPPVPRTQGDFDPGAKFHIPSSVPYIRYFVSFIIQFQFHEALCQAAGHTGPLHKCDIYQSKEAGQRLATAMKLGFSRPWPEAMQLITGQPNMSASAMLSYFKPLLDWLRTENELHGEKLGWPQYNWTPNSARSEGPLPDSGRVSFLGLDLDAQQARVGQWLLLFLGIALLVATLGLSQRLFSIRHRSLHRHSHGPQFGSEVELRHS
Protocol: as §1, §2

human B1R (B1R-FLAG) = biological target: T3, human B1R (B1R-FLAG) (Homo sapiens, UniProt P46663); test: [3H]Lys-des-Arg9-BK binding competition to B1R-FLAG transiently expressed in HEK 293a cells; conditions: log of IC50; 1 nM [3H]Lys-des-Arg9-BK, HEK 293a cells
T3 construct: FLAG; expressed in transfected cells
T3 sequence (P46663 1-353): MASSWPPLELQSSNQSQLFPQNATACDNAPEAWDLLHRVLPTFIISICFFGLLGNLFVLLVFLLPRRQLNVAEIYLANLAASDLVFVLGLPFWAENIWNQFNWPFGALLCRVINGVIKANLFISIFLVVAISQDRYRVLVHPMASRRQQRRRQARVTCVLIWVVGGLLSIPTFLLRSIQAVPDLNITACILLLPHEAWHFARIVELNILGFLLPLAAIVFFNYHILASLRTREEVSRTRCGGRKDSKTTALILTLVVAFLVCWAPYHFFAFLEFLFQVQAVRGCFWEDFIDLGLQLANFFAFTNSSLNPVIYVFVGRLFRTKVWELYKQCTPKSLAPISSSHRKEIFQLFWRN

[3] = biological target: T4, BK B2R (human umbilical vein rings) (Homo sapiens, UniProt P30411); test: Human isolated umbilical vein contractility assay; assay type: cell-based
T4 construct: from tissue; host or cells: human umbilical vein rings
T4 sequence (P30411 1-391): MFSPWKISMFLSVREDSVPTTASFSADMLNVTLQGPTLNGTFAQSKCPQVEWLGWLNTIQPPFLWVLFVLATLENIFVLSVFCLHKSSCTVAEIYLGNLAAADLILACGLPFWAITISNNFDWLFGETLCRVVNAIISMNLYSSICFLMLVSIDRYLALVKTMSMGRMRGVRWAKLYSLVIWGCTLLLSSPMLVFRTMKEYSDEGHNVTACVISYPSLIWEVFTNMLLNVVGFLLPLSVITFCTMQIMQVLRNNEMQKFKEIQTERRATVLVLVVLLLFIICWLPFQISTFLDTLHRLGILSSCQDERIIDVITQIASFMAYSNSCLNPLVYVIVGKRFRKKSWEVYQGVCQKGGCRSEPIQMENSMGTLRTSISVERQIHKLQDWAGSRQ
From the text: The institutional research ethics board (CHU de Québec) approved the anonymous use of human umbilical cord segments obtained after elective cesarean section deliveries. Informed consent was obtained from mothers. […] Tissues were used only once and discarded; controls curves were obtained from other vascular rings from the same vein.
as §2

[4] = biological target: rabbit B2R-green fluorescent protein (rabbit) (UniProt Q28642); test: radioligand binding; competition of 3 nM [^3H]BK binding to adherent intact HEK 293 cells stably expressing rabbit B2R-GFP by unlabeled peptides; 0 °C; peptidase inhibitors that included captopril; one-site competition fit
[5] = biological target: endogenous B2 receptor of the human umbilical vein (human (endogenous in umbilical vein)) (UniProt P30411)
human recombinant ACE [6] = biological target: T2, human recombinant ACE; test: radioligand binding; competition of 2 nM [^3H]enalaprilat binding to HEK 293a cells transiently expressing human recombinant ACE by BK and analogs; one-site competition fit
[7] = biological target: human B1R (B1R-FLAG vector) (human) (UniProt P46663); test: radioligand binding; competition of 1 nM [^3H]Lys-des-Arg^9-BK binding to HEK 293a cells transiently expressing human B1R (B1R-FLAG vector); one-site competition fit

IC50 for B2R-GFP relative to unlabeled BK (fold greater IC50 / lower affinity) ([1]; [3H]BK binding competition, vs BK): 102 fold | [3H]BK binding to B2R-GFP log(IC50) ± SE ([1]; log of IC50, 3 nM [3H]BK, 0 °C, with peptidase inhibitors incl. captopril, HEK 293 cells): -5.79 ± 0.13 | fold lesser affinity vs. BK for ACE (human recombinant ACE [2]; [3H]enalaprilat binding competition, vs BK): 3.94 fold | [3H]enalaprilat binding to ACE log(IC50) ± SE (human recombinant ACE [2]; log of IC50, 2 nM [3H]enalaprilat, HEK 293a cells): -5.21 ± 0.15 | [3H]Lys-des-Arg9-BK binding to B1R-FLAG log(IC50) ± SE (human B1R (B1R-FLAG)): >-5 | fold less potent than BK as contractile agent ([3]; control conditions, vs BK): 6.9 fold | decrease of apparent contractile potency by ACE blockade ([3]; enalaprilat 1 μM vs paired control tissues): 3.9 fold | +Peptidase inhibitor log(EC50) ± SE ([3]; log of contractile EC50, enalaprilat 1 μM, 30 min before agonist): -6.32 ± 0.06 | Control (DMSO vehicle) log(EC50) ± SE ([3]; log of contractile EC50, no peptidase inhibitor, paired tissues): -6.90 ± 0.09
Molecule: N=C(N)NCCC[C@H](NC(=O)[C@H](Cc1ccccc1)NC(=O)[C@@H]1CCCN1C(=O)[C@H](CO)NC(=O)[C@H](Cc1ccccc1)NC(=O)CNC(=O)[C@@H]1CCCN1C(=O)[C@@H]1CCCN1C(=O)[C@@H](N)CCCNC(=N)N)C(=O)N[C@@H](CO)C(=O)N[C@@H](Cc1ccc(O)cc1)C(=O)O [BK-Ser-Tyr] (H-RPPGFSPFRSY-OH; N-terminus and C-terminus assumed)

log(IC50) [4]: -7.61 log M | log(EC50) of contraction of the human isolated umbilical vein, control (DMSO vehicle), Figure 5B [5]: -7.39 log M | log(EC50) of contraction of the human isolated umbilical vein, with NVP-DPP728 1 μM, Figure 5B [5]: -7.29 log M | log(EC50) of contraction of the human isolated umbilical vein, with amastatin 3 μM, Figure 5B [5]: -7.35 log M
Molecule: Arg-Pro-BK (peptide)

log(IC50) [4]: -5.11 log M | log(IC50) (human recombinant ACE [6]): -5.46 log M | log(EC50) of contraction of the human isolated umbilical vein, with ACE blocked by enalaprilat 1 μM, Figure 3D [5]: -5.55 log M | log(IC50) [7]: > -5 log M
Molecule: BK-Ala-Pro (peptide)

log(IC50) [4]: -6.34 log M | log(IC50) [7]: -5.12 log M
Molecule: BK-Arg (peptide)

log(IC50) [4]: -5.24 log M | log(IC50) (human recombinant ACE [6]): -5.28 log M | log(EC50) of contraction of the human isolated umbilical vein, with ACE blocked by enalaprilat 1 μM, Figure 3C [5]: -5.34 log M | log(IC50) [7]: > -5 log M
Molecule: BK-His-Leu (peptide)

log(IC50) [4]: -5.79 log M | log(IC50) (human recombinant ACE [6]): -5.21 log M | log(EC50) of contraction of the human isolated umbilical vein, with ACE blocked by enalaprilat 1 μM, Figure 3B [5]: -6.32 log M | log(IC50) [7]: > -5 log M
Molecule: BK-Ser-Tyr (peptide)
